# Tests used:
# SH-SY5Y cells [1] = conditions: cited from earlier work; for internalization in presence of inhibitors of actin polymerization: SH-SY5Y cells
# From the text: Rho GTPases are important regulators of CIE (Figure 1).[30],[41] […] Since Cdc42 (and other Rho GTPases) regulate the actin cytoskeleton,[74] this would be consistent with our previously published result that inhibitors of actin polymerization reduced Aβ(1-40) and Aβ(1-42) but not Trf internalization in SH-SY5Y cells.[13] To f ... || We repeated this set of experiments, exploring also the Rho GTPases Rac1 and RhoA. Overexpression of EGFP-tagged Rac1 (DA Q61L, WT, and DN T17N) induced lamellipodia-like morphologies in transfected cells as expected from the literature.[74] […] The latter result is contrasting observations by ... || We report that Aβ(1-42) uptake into SH-SY5Y cells is sensitive to osmotic pressure-induced alterations in membrane tension, which points to the involvement of CLICs or macropinocytosis. Importantly, Aβ(1-42) behaves distinctively different than the CME-cargo Trf, but also dextran, which is an unspecific fluid-phase endocytosis marker.
# SH-SY5Y cells [2] = assay: Cellular uptake by flow cytometry in cells transfected with EGFP-tagged Rho GTPases (Cdc42, Rac1, RhoA); conditions: for uptake on overexpression of DA EGFP-Cdc42 Q61L relative to nontransfected cells / uptake on overexpression of WT or DN EGFP-Cdc42 relative to nontransfected cells: ~24 h post-transfection; for uptake on overexpression of DA EGFP-Cdc42 Q61L relative to nontransfected cells: 1 μM HF647-Aβ(1-42) 1 h, 5 μg/mL AF647-Trf 5 min (N = 3, n = 4) or 125 μg/ml AF647-dextran 10 kDa 1 h (n = 4); for uptake on overexpression of EGFP-tagged Rac1 (DA Q61L, WT, DN T17N) relative to nontransfected cells: 1 μM HF647-Aβ(1-42) 1 h (N = 3, n = 4) or 125 μg/ml AF647-dextran 10 kDa 1 h (n = 4); for uptake on overexpression of WT or DN EGFP-Cdc42 relative to nontransfected cells / uptake on overexpression of all variants of EGFP-tagged RhoA (DA Q63L, WT, DN T19N) relative to nontransfected cells: 1 μM HF647-Aβ(1-42) 1 h or 5 μg/mL AF647-Trf 5 min; for uptake on overexpression of all variants of EGFP-tagged RhoA (DA Q63L, WT, DN T19N) relative to nontransfected cells: ~30 h post-transfection, N = 4, n = 4
# Experimental: SH-SY5Y cells were passaged 2 days prior to transfection, grown to ∼70% confluency, and transfected with plasmids encoding for Rho GTPases (EGFP-tagged DA, WT, and DN variants of Cdc42, Rac1, and RhoA; see the above section Reagents) by electroporation using a Neon Transfection System (Invitrogen, Carlsbad, CA), following the protocol provided by the manufacturer and applying a single pulse of 1 100 V with a pulse width of 50 ms. The cells were transfected using 1 μg of plasmid DNA/100 000 cells in a 10 μL Neon Tip or 10 μg of plasmid DNA/10^6 cells in a 100 μL Neon Tip and plated immediately after. Based on the initial experiments, the analysis was set to ∼24 h, ∼27 h, and ∼30 h post-transfection for Cdc42, Rac1, and RhoA, respectively, by evaluating the time it took until the cells expressed the proteins and adapted the expected morphologies.
# Flow cytometry was used for quantification of cellular uptake. […] All samples were kept on ice until they were analyzed on a Guava EasyCyte 8HT (Millipore, Darmstadt, Germany) that automatically retrieves samples from a 96-well plate. In order to exclude effects due to difference in delay time, we used mixed order of analysis, loading only a few samples at a time with the remaining samples kept on ice. Only the central cell cluster on the forward/side scatter (FSC/SSC) dot plot was analyzed, and for each sample 5 000 cells from within the gate were counted. […] The mean cellular uptake or level of Rho GTPase expression was estimated as the average fluorescence intensity of all cells within the gate. The mean cellular uptake was baseline corrected by subtracting the signal recorded for untreated cells. Each cell treatment was performed in three or four technical replicates (n = 3–4) and repeated on at least two separate occasions (N ≥ 2).
# Statistical analysis was performed by matched sample ANOVA using GraphPad Prism software (GraphPad, San Diego, CA) on data that had been normalized so that the uptake in nontransfected cells was 100% for the individual experiments. Matched sample ANOVA was followed by multiple comparisons with the Bonferroni posthoc test to test for differences in mean peptide uptake between nontransfected cells and uptake at the different transfection efficiencies. This means that the reported individual p-values have been adjusted for the number of comparisons that were relevant to the experiment.
# SH-SY5Y cells [3] = assay: Live cell confocal microscopy of uptake during changes in membrane tension; conditions: 2 μM HF488-Aβ(1-42); for internalization during hypotonic conditions: 10 min in hypotonic medium (75% MQ water, 25% cell culture medium); for internalization during hypotonic conditions / internalization during recovery (re-exposure to isotonic conditions): 250 μg/mL AF647-dextran 10 kDa or 5 μg/mL AF488-Trf; for internalization during recovery (re-exposure to isotonic conditions): 10 min in isotonic medium after 10 min hypotonic (75% MQ); for internalization under isotonic conditions: 10 min in isotonic medium, 250 μg/mL AF647-dextran 10 kDa
# Experimental: SH-SY5Y cells were incubated with Aβ(1-42), Trf, and dextran 10 kDa while exposed to changes in membrane tension and analyzed by confocal microscopy and flow cytometry. For uptake at isotonic conditions, the cells were washed 1× with serum-free medium, incubated with either 2 μM HF488-labeled Aβ(1-42), 5 μg/mL AF488-labeled Trf, or 250 μg/mL AF647-labeled dextran 10 kDa in serum-free medium with the addition of 2% B-27 for 10 min, washed 1× with serum free medium for microscopy, or 3×/2 min on ice with either ice-cold serum-free medium (Aβ(1-42) and dextran) or acidic buffer (0.1 M glycine-HCl buffer pH 2.5 with 150 mM NaCl; Trf)[80] and harvested for analysis by flow cytometry. […] Lastly, cells analyzed for uptake at recovery conditions were first pretreated with isotonic medium for 10 min followed by treatment in hypotonic medium for 10 min, whereupon they were exposed to the peptides and dextran in isotonic medium for 10 min.
# SH-SY5Y cells [4] = assay: Cellular uptake quantified by flow cytometry during changes in membrane tension; type: cell-based, human; conditions: for cellular uptake during the recovery phase relative to uptake in isotonic media: 2 μM HF488-labeled Aβ(1-42) or 250 μg/mL AF647-labeled dextran 10 kDa, 10 min in isotonic medium after 10 min hypotonic (75% MQ), serum-free medium + 2% B-27, flow cytometry mean fluorescence, N = 8, n = 3–4; for effect of hypertonic media on uptake: addition of 100 mM NaCl to the culture medium, 2 μM HF488-Aβ(1-42), 250 μg/mL AF647-dextran 10 kDa, 10 min, flow cytometry, N = 4, n = 3–4
# From the text: Flow cytometry was used for quantification of cellular uptake.
compound,measurement,setting,value
Aβ(1-40): Amyloid-β isoform; uptake results quoted from the authors' earlier work,internalization in presence of inhibitors of actin polymerization,SH-SY5Y cells [1],reduced
dextran,uptake on overexpression of DA EGFP-Cdc42 Q61L relative to nontransfected cells,SH-SY5Y cells [2],unaffected
same,"uptake on overexpression of EGFP-tagged Rac1 (DA Q61L, WT, DN T17N) relative to nontransfected cells",SH-SY5Y cells [2]; ~27 h post-transfection,did not alter
same,reduction of uptake in cells expressing DA RhoA,"SH-SY5Y cells [2]; ~30 h post-transfection with RhoA Q63L, 125 μg/ml AF647-labelled dextran 10 kDa 1 h, n = 4",up to 50%
same,internalization during hypotonic conditions,SH-SY5Y cells [3],little or no internalization
same,internalization during recovery (re-exposure to isotonic conditions),SH-SY5Y cells [3],induced
same,internalization under isotonic conditions,SH-SY5Y cells [3],low
same,cellular uptake during the recovery phase relative to uptake in isotonic media,SH-SY5Y cells [4],~8 times
same,effect of hypertonic media on uptake,SH-SY5Y cells [4],did not increase
"Trf: AlexaFluor488- and AlexaFluor647-labeled Transferrin, ligand of clathrin-mediated endocytosis",internalization in presence of inhibitors of actin polymerization,SH-SY5Y cells [1],not
same,uptake on overexpression of DA EGFP-Cdc42 Q61L relative to nontransfected cells,SH-SY5Y cells [2],reduced
same,uptake on overexpression of WT or DN EGFP-Cdc42 relative to nontransfected cells,"SH-SY5Y cells [2]; N = 3, n = 4",no effect
same,uptake in cells with the highest concentration of WT and DN Rac1,"SH-SY5Y cells [2]; ~27 h post-transfection, 5 μg/mL AF488-labeled Trf 5 min, high gate, N = 3, n = 4",reduction
same,uptake in cells with medium expression level of DA Rac1 versus control,"SH-SY5Y cells [2]; ~27 h post-transfection, 5 μg/mL AF488-labeled Trf 5 min, medium gate, N = 3, n = 4",slightly more
same,"uptake on overexpression of all variants of EGFP-tagged RhoA (DA Q63L, WT, DN T19N) relative to nontransfected cells",SH-SY5Y cells [2],reduced
same,internalization during hypotonic conditions,SH-SY5Y cells [3],blocked
same,internalization during recovery (re-exposure to isotonic conditions),SH-SY5Y cells [3],remained low
Oc1ccc2ccccc2c1SSc1c(O)ccc2ccccc12 [IPA-3],effect of macropinocytosis inhibitor on the uptake of Aβ(1-40) and Aβ(1-42),SH-SY5Y cells [1],reductions
COC[C@H]1OC(=O)c2coc3c2[C@@]1(C)C1=C(C3=O)[C@@H]2CCC(=O)[C@@]2(C)C[C@H]1OC(C)=O [wortmannin],effect of macropinocytosis inhibitor on the uptake of Aβ(1-40) and Aβ(1-42),SH-SY5Y cells [1],reductions
"Aβ(1-42): Synthetic Aβ(1-42) peptide, conjugated to the HiLyte Fluor HF488 or HF647 at the N-terminus, from Anaspec; applied in highly monomeric form",internalization in presence of inhibitors of actin polymerization,SH-SY5Y cells [1],reduced
same,internalization by NIH-3T3 fibroblasts compared with CHO and SH-SY5Y,SH-SY5Y cells [1],more
same,uptake on overexpression of DA EGFP-Cdc42 Q61L relative to nontransfected cells,SH-SY5Y cells [2],reduced
same,uptake on overexpression of WT or DN EGFP-Cdc42 relative to nontransfected cells,"SH-SY5Y cells [2]; N = 3, n = 4",no effect
same,"uptake on overexpression of EGFP-tagged Rac1 (DA Q61L, WT, DN T17N) relative to nontransfected cells",SH-SY5Y cells [2]; ~27 h post-transfection,None of the Rac1 variants had any effect
same,"uptake on overexpression of all variants of EGFP-tagged RhoA (DA Q63L, WT, DN T19N) relative to nontransfected cells",SH-SY5Y cells [2],reduced
same,internalization during hypotonic conditions,SH-SY5Y cells [3],little or no internalization
same,internalization during recovery (re-exposure to isotonic conditions),SH-SY5Y cells [3],resumed to internalize
same,internalization under isotonic conditions,SH-SY5Y cells [3],formation of small endosomal vesicles containing Aβ(1-42) was observed
same,cellular uptake during the recovery phase relative to uptake in isotonic media,SH-SY5Y cells [4],doubles
same,effect of hypertonic media on uptake,SH-SY5Y cells [4],did not increase

# Reference: PMC7497631, “Role of Membrane Tension Sensitive Endocytosis and Rho GTPases in the Uptake of the Alzheimer’s Disease Peptide Aβ(1-42)” (ACS Chemical Neuroscience, 2020)
